The test has as its target T1, USP15 (275–981) (human, UniProt Q9Y4E8 275-981).
T1 sequence: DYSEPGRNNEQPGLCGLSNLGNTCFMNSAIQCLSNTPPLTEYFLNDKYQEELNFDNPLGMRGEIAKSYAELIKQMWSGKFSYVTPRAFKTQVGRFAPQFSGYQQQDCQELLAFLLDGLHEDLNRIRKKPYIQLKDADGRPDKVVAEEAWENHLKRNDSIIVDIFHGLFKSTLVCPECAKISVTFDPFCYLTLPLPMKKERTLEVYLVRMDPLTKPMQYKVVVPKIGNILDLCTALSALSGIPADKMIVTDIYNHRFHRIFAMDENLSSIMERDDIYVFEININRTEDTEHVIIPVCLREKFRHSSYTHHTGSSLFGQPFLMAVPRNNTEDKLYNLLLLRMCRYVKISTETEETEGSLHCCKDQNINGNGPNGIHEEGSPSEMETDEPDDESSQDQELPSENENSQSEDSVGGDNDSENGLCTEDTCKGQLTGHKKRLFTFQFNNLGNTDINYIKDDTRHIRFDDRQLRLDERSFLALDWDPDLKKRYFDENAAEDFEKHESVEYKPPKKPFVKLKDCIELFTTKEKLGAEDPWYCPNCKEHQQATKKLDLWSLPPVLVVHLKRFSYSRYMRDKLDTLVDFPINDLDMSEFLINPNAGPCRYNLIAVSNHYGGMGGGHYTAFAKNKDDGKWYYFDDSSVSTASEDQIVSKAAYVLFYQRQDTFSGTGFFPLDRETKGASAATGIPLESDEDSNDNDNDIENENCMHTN
Briefly: pull-down.

The results in this text go back to publication PMC9638925 (Nucleic Acids Research, 2022).

B1: GST–cGAS (161–522) (domain or fragment)
chain: GASKLRAVLEKLKLSRDDISTAAGMVKGVVDHLLLRLKCDSAFRGVGLLNTGSYYEHVKISAPNEFDVMFKLEVPRIQLEEYSNTRAYYFVKFKRNPKENPLSQFLEGEILSASKMLSKFRKIIKEEINDIKDTDVIMKRKRGGSPAVTLLISEKISVDITLALESKSSWPASTQEGLRIQNWLSAKVRKQLRLKPFYLVPKHAKEGNGFQEETWRLSFSHIEKEILNNHGKSKTCCENKEEKCCRKDCLKLMKYLLEQLKERFKDKKHLDKFSSYHVKTAFFHVCTQNPQDSQWDRKDLGLCFDNCVTYFLQCLRTEKLENYFIPEFNLFSSNLIDKRSKEFLTKQIEYERNNEFPVFDEF
As to B1, the binding result is recorded as “binds”.
